Sequences and labels used below:
B1: 6-P20 (antibody, V domains shown)
VH: EVQLQQSGPELVKPGASVKISCKASGYTFTDYYMNWVKQSHGRSLELIGDINPNNGGSNFNQKFRGKATLTVDKSSSTAYMELRSLTSEDSAIYYCARMGYWGQGTLVTVSA
VL: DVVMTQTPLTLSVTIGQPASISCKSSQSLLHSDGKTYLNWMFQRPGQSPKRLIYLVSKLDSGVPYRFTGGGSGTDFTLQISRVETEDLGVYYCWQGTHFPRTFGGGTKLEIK
notes: mouse hybridoma IgG
B2: 18E10F10 (antibody, V domains shown)
VH: EVQLVESGGGLVQPGRSLKLSCAASRFTFSDYNMAWVRQAPKKGLEWVATIYHDDSGSYYRDSVKGRFTISRNNAKSTLYLQMDSLRSEDMATYYCARHNNGFDYWGQGVMVTVAS
VL: DVVMTQTPVSLPVRLGGQASISCRSSQSLVHSNGNTYLHWYLQKPGQSPQLLINRVSNRFSGVPDRFSGSGSGTDFTLKINRVEPEDLGDYYCLQSTHFPLTFGSGTKLETK
notes: rat hybridoma mAb
B3: 7-O8 (antibody, V domains shown)
VH: EVQLQQSGPELVKPGASVKMSCKASGYTFTDYYIHWVKQKPGQGLEYIGEIYPGSGNTYYNGKFRGKATLTADKSSSTAYMQLSSLTSEDSAVYFCGSGYFDYWGQGTTLTVSS
VL: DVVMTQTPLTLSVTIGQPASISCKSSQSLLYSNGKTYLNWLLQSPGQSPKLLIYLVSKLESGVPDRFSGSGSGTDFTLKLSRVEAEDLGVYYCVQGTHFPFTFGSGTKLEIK
notes: mouse hybridoma IgG
B4: 3-G5 (antibody, V domains shown)
VH: QVQLQQSGAELARPGASVKLSCKASGYTFTSYGISWVKQRTGQGLEWIGEIFPRSSNTYYNEKFKGKATLTADKSSSTVYMEFRSLTSEDSAVYFCAREGGLAWFAYWGQGTLVTVSA
VL: DVVMTQTPLTLSVTIGQPASISCKSSQSLLYTNGNTYLNWLLQRPGQSPKRLIYLVSKLDSGIPDRFSGSGSGTDFTLRISRVEAEDLGVYYCLQSTHFPFTFGSGTKLEIK
notes: mouse hybridoma IgG
B5: 6-B21 (antibody, V domains shown)
VH: EVQLQQSGPELVKPGASVKISCKASGYTFTDYYMNWVKQSHGKSLEWIGDINPHNGGTSFIQKFKGKATLTVDKSSSTAYMELRSLTSEDSAVYYCAPLGRKEGFAYWGQGTLVTVSA
VL: DTVLTQSPASLVVSLGQRATISCRASKSVSTSGYSYMHWYQQKPGQPPKLLIYLASNLESGVPARFSGSGSGTAFTLNIHPVEEEDAATYYCQHSRELPYTFGGGTKLEIK
notes: mouse hybridoma IgG
B6: 9-B11 (antibody, V domains shown)
VH: QVQLQQPGAELVRPGTSVKLSCKASGYTFTSYWMHWVQQRPGQGLEWIGVIDPSDSYTNYNQKFKGKATLTVDTSSSSAYMQLSSLTSEDSAVYYCARDDVAMDYWGQGTSVTVSS
VL: DIVVTQSPASLAVSLGQRATISCRASESVDSYGNSFIHWYQQKPGQPPKLLIYRASNLKSGIPARFSGSGSRTDFTLTINPVEADDVATYYCQQSNEDPYTFGGGTKLEIK
notes: mouse hybridoma IgG
B7: 10-L15 (antibody, V domains shown)
VH: QVQLQQSGPELVRPGASVKMSCKASGYTFTSYWMHWVKQRPGQGLEWIGMIDPSNSETWLNQKFKDKATLNVDKSSNTAYMQLSSLTSEDSAVYYCARYDGYYDYWGQGTTLTVSS
VL: NIVLTQSPASLAVSLGQRATISCRASESVDSYGNSFMHWYQQKPGQPPKLLIYLASNVESGVPARFSGSGSRTDFTLTIDPVEADDAATYYCQQNNEDPWTFGGGTKLEIK
notes: mouse hybridoma IgG
B8: 6-O12 (antibody, V domains shown)
VH: EVKLEESGGGLVQPGGSMKLSCAASGFTFSDAWMDWVRQSPEAGLEWVAEIRNKAHNPATYYAESVKGRFTISRDDSKSSVYLQMNSLRAEDTGIYYCTLVAPDAMDYWGQGTSVTVSS
VL: DIVMSLSPSSLAVSVGEKVTMSCKSSQSLLYSRNQKNYLAWYQQKPGQSPKLLIYWASTRASGVPDRFTGSGSGTDFTLTISSVKAEDLAVYYCQQYYSYPYTFGGGTKLEIK
notes: mouse hybridoma IgG
B9: 10-K10 (antibody, V domains shown)
VH: EVQLQQSGPELVKPGASVKMSCKASGYTITDYYMMWLKQSHGKSLEWIGDINPYTGGTSYNQKFKGKATLTVDKSSSTAYMQLNSLTSEDSAVYYCARGAYWGQGTTLTVSS
VL: not shown
notes: mouse hybridoma IgG
B10: 6-A15 (antibody, V domains shown)
VH: B9 VH with M81L, N84H
VL: not shown
notes: mouse hybridoma IgG
B11: 2-A3 (antibody, V domains shown)
VH: B9 VH with I29F, L37V, T55N, T58S, Q62P, K67R, A100T, T107L, L108V, S112A
VL: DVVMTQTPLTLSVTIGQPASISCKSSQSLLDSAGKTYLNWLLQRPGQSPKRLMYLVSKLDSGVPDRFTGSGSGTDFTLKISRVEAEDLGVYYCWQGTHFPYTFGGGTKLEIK
notes: mouse hybridoma IgG
B12: 6-M8 (antibody, V domains shown)
VH: QVQLQQPGAELVMPGASVKLSCKASGYTFTNYWMHWVKQRPGQGLEWIGEIDPSDSYTNYNQKFKGKATLTVDKSSSTAYMQLSSLTSEDSAVYYCTRQGSTYAWGQGTSVTVSS
VL: DIVMTQAAFSNPVTLGTSASISCRSSKSLLHSNGITYLYWYLQKPGQSPQLLIYQMSNLASGVPDRFSSSGSGTDFTLRISRVEAEDVGVYYCAQNLELPPTFGGGTKLEIK
notes: mouse hybridoma IgG
B13: 10-F23 (antibody, V domains shown)
VH: QVTLKESGPGILQPSQTLSLTCSFSGFSLSTFAMGVGWIRQPSGKGLEWLAHIWWDDDKYYNPALKSRLTISKDTSKNHVFLKIANVDTADTATYYCARMPLTFYFDYWGQGTTLTVSS
VL: DVLLTQTPLSLPVSLGDQASISCRSSQSIVHSNGHTYLEWYLQKPGQSPKLLIYKVSNRFSGVPDRFSGSGSGTDFTLKISRVEAEDLGVYYCFQGSHVPFTFGGGTKLEIK
notes: mouse hybridoma IgG
B14: 6-A12 (antibody, V domains shown)
VH: B13 VH with S30R, H79Q
VL: B13 VL with L4M, H35N, N58T
notes: mouse hybridoma IgG
B15: 8H8E9 (antibody, V domains shown)
VH: QVQLKESGPGLVQPSQTLSLTCTVSGFSLTSNSVSWVRQAPGKGLEWMGAIWSGGSTDYNSALKSRLSISRDTSKSQVFLKMNSLQTEDTAIYFCTRSHWEPFDYWGQGVMVTVSS
VL: DIVMTQSPFSLAVSEGEMVTINCKSSQGLLSSGNQKNYLAWYQQRPGQSPKLLIYYASTRQSGVPDRFIGGGSGTDFTLTISDVQAEDLADYYCLQHYSYPPTFGSGTKLEIK
notes: rat hybridoma mAb
B16: 6E5C11 (antibody, V domains shown)
VH: B15 VH with K5R, S35T, A40P, G54D, A62T, N83S
VL: B15 VL with F9L, M18T, I21M, G28S, L30F, R45K, G71S, A86T, S99N
notes: rat hybridoma mAb

Residue numbers refer to the chain shown, from its start.

T3 sequence (Q9UKX5 23-1188, chain 1 of 2): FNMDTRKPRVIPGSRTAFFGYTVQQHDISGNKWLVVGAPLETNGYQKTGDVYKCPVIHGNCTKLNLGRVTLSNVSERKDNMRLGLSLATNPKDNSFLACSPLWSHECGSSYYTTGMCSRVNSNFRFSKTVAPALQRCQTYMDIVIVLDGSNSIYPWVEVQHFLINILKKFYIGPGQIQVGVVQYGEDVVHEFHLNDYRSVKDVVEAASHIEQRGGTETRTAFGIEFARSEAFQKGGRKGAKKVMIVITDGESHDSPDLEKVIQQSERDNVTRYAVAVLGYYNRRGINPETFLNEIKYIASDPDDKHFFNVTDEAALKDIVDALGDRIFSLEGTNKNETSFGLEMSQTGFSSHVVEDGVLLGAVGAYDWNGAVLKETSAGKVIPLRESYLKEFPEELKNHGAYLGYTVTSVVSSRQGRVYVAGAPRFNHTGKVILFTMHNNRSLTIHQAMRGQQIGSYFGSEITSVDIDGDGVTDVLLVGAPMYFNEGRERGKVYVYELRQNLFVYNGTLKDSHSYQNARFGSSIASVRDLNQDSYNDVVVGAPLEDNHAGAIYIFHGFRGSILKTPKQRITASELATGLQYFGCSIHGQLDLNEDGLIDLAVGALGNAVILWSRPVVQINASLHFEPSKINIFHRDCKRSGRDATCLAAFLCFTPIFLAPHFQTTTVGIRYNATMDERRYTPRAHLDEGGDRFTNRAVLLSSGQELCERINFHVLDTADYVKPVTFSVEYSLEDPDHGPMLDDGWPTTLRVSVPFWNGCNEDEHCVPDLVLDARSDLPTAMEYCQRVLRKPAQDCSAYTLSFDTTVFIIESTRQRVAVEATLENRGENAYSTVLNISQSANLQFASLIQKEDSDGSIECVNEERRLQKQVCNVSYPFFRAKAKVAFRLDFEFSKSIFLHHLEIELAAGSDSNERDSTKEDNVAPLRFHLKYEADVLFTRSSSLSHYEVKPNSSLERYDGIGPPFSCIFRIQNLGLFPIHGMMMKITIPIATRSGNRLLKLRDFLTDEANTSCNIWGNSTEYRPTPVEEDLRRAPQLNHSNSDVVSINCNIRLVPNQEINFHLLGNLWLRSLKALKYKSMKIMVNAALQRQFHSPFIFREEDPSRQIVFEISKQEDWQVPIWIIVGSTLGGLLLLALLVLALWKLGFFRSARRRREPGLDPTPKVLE
T3 sequence (P05556 21-798, chain 2 of 2): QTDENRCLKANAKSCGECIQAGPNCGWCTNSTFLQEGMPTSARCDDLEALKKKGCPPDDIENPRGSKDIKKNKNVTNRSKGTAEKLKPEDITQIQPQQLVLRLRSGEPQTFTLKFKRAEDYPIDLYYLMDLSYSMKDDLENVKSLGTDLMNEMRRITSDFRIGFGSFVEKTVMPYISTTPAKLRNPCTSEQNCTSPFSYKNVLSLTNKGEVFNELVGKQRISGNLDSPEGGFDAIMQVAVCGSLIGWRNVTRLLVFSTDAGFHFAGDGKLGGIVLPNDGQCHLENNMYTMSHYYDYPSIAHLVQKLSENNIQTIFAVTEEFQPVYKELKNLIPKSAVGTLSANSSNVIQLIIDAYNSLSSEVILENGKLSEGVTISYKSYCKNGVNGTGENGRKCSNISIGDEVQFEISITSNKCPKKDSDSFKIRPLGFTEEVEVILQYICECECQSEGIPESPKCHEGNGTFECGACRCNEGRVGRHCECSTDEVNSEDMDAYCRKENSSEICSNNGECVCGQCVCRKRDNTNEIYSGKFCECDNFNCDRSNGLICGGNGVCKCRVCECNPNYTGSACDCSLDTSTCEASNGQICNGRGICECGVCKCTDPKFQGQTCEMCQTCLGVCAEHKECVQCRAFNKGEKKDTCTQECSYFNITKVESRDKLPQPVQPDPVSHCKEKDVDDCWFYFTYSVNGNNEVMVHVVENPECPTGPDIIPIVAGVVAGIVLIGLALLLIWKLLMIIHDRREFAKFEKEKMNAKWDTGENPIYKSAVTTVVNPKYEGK

The target of one experiment is T1, recombinant human α11β1 (human, UniProt Q9UKX5 23-1141; P05556 21-728).
T1 construct: Coated in ELISA; ELISA and SPR material treated as one molecule; also called HIS-tagged human α11β1; integrin alpha 11 beta 1
T1 sequence (Q9UKX5 23-1141 limits assumed, chain 1 of 2): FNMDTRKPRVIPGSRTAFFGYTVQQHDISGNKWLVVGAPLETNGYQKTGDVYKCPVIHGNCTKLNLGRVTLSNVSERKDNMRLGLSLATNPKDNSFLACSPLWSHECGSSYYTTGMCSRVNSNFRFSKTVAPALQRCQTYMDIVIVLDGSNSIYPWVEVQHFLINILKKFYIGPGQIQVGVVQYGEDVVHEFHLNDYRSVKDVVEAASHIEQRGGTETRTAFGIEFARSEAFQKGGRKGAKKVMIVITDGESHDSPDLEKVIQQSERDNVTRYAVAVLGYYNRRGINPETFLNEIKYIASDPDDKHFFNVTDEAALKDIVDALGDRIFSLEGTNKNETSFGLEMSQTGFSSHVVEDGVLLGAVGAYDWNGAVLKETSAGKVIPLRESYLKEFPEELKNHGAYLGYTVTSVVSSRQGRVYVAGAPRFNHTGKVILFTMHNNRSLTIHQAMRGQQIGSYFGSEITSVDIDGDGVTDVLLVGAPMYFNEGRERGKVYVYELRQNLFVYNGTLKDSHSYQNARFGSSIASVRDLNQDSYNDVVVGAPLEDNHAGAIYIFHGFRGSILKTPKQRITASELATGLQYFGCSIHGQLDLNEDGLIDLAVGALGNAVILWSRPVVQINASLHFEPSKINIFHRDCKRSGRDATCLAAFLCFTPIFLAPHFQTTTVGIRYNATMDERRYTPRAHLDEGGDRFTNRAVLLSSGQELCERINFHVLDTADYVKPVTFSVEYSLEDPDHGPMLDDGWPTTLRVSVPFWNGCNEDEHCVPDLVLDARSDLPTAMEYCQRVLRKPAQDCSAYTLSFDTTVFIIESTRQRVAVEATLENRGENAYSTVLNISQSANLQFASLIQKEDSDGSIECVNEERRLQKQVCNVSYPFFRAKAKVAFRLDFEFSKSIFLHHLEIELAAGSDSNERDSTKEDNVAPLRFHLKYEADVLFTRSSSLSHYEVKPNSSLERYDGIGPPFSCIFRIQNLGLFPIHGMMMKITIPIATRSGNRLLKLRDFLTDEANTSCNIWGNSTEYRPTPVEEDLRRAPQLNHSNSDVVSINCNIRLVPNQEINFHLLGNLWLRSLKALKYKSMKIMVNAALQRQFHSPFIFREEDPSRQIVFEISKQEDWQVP
T1 sequence (P05556 21-728 limits assumed, chain 2 of 2): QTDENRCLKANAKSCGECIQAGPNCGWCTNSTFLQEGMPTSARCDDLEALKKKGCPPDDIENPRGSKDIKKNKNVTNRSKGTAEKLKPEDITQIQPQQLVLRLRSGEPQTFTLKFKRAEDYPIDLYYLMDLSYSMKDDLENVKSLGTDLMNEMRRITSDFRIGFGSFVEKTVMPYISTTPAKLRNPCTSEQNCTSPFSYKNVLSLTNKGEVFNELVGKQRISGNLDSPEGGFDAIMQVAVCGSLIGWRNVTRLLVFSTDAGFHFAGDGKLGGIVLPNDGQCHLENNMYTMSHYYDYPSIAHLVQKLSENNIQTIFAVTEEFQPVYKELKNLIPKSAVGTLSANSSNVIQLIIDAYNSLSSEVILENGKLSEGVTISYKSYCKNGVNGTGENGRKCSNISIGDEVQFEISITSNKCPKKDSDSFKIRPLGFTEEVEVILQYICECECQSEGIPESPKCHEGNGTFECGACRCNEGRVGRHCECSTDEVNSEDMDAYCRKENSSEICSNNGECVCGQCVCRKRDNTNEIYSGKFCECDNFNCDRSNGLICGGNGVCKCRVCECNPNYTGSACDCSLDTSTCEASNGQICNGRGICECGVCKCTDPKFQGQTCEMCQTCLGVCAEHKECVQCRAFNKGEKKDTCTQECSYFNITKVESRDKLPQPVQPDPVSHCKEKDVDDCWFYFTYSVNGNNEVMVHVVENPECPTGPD
The experiment in a line: ELISA on recombinant human α11β1. How it is done: (§1) 0.25 μg/mL of target antigen (recombinant human or mouse α11β1) was plated in a 96-well plate over night at 4° C. Plates were washed (PBS with 0.1% Tween-20), blocked (PBS with 2% BSA and 0.05% Tween-20) for 1 hour at room temperature and incubated with a range of antibody concentrations for 1 hour at room temperature. Subsequently, plates were washed and incubated with biotinylated anti-rabbit/mouse/human IgG in a 1:1000 dilution buffer and incubated for 1 hour at room temperature. After washing the plates, Streptavidin HRP was added at 1:200 in dilution buffer and incubated for 1 hour at room temperature. Ultra TMB ELISA substrate solution was added and the plates incubated for 5 minutes on a plate shaker. The reaction was stopped by adding stop solution to each well and plates were read at 450 nm.
On to B1, for which the binding result is given as “binds”.

As to B2, the binding result is “binds”.

On to B3, for which the binding result is listed as “binds”.

Turning to B4, the binding result was “binds”.

B5: the binding result is given as “binds”.

On to B6, for which the binding result is “binds”.

Take B7: the binding result is on record as “binds”.

B8: the binding result was “binds”.

For B9, the binding result was “binds”.

Regarding B10, the binding result was “binds”.

On to B11, for which the binding result was “binds”.

For the molecule B12, the binding result is “binds”.

As to B13, the binding result is given as “binds”.

Regarding B14, the binding result is given as “binds”.

Take B15: the binding result is listed as “binds”.

With B16, the binding result was “binds”.

The next experiment has as its target T2, in-house generated I domain of α11β1 (human, UniProt Q9UKX5 159-349, limits assumed).
T2 construct: domain: I domain; also called human α11β1 I domain; α11β1 I Domain
T2 sequence (looked up): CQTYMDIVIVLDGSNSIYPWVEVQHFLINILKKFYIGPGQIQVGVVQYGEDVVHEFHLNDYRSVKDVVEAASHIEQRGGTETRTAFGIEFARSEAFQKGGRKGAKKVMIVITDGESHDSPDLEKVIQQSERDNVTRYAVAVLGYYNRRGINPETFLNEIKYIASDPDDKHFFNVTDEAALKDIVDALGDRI
The experiment in a line: binding to isolated I domain.
With B1, the binding result was “no binding”.

On to B2, for which the binding result is on record as “no binding”.

On to B4, for which the binding result was “no binding”.

As for B5, the binding result is reported as “no binding”.

On to B8, for which the binding result is “no binding”.

Take B9: the binding result was “no binding”.

Take B10: the binding result was “no binding”.

Consider B11, for which the binding result is reported as “no binding”.

On to B12, for which the binding result is listed as “no binding”.

The next experiment has as its target T3, α11β1 on human myofibroblasts (MF) (human, UniProt Q9UKX5 23-1188; P05556 21-798).
T3 construct: whole, on cells
The experiment in a line: FACS on human myofibroblasts. How it is done:
Human Pulmonary Fibroblasts (ScienCell) were cultured in complete Fibroblast Growth Medium (ScienCell) until 80% confluent in T-150 flasks. Cells were washed and harvested using Accutase. Cells were seeded into T-150 flasks at 7,500 cells/cm² in complete FGF and cultured for 72 hours. Cells were then washed and starved in serum reduced medium for 24 hours. After starvation, cells were treated with TGFβ-1 (R&D Systems) for 72 hours. Cells were harvested using Accutase and seeded in 96-well conical bottom plates. Cells were blocked with Heat Inactived Fetal Bovine Serum (Gibco) for 30 minutes at 4° C. Cells were then incubated with anti-α11 antibodies at the doses described in each figure for 30 minutes at 4° C. A human anti-α11 antibody (Creative BioLabs) was included as a positive control as well as the appropriate IgG isotype negative controls. Cells were washed twice and incubated with PE conjugated secondary antibodies specific to the IgG class of the anti-α11 antibodies being tested for 30 minutes at 4° C. Cells were washed twice and fixed in 1% PFA for 30 minutes. Cells were acquired on a FACS Verse […]. Data were analyzed by gating on single cells and determining the geometric Mean Fluorescence Intensity (gMFI) in the PE channel for each sample.
For B3, the binding result was “binds”.

On to B6, for which the binding result is recorded as “binds”.

For the molecule B9, the binding result is given as “binds”.

As to B13, the binding result is given as “binds”.

In the case of B14, the binding result was “binds”.

The next experiment has as its target T4, recombinant mouse α11β1 (mouse, UniProt P61622 23-1141; P09055 21-728, limits assumed).
T4 construct: also called murine α11β1
Nature of the experiment: ELISA on recombinant mouse α11β1. The method, then: as §1
(ELISA stands for enzyme-linked immunosorbent assay.)
With B1, the binding result was “no binding”.

With B2, the binding result is given as “no binding”.

For the molecule B3, the binding result is listed as “binds”.

Turning to B4, the binding result is on record as “binds”.

Take B5: the binding result was “binds”.

Consider B6, for which the binding result is reported as “no binding”.

B7: the binding result was “binds”.

Regarding B8, the binding result was “no binding”.

Turning to B9, the binding result was “binds”.

Consider B10, for which the binding result is given as “binds”.

On to B11, for which the binding result is “binds”.

As for B12, the binding result is given as “no binding”.

As to B13, the binding result is recorded as “binds”.

As to B14, the binding result is “binds”.

Consider B15, for which the binding result is on record as “no binding”.

With B16, the binding result is reported as “no binding”.

These data come from US20230050972A1 (MOMENTA PHARMACEUTICALS, published 2023).
